Three molecules from patent EP3460067A1, “PROCESS FOR ENZYMATIC OXIDATION OF LINEAR CARBOHYDRATES” (Technische Universität München, priority 2017, dated 2019) can be followed below.

One data set addresses T1, SpsADH (Sphingomonas sp. A1, UniProt A0A075B5H4).
T1 sequence (A0A075B5H4 1-258): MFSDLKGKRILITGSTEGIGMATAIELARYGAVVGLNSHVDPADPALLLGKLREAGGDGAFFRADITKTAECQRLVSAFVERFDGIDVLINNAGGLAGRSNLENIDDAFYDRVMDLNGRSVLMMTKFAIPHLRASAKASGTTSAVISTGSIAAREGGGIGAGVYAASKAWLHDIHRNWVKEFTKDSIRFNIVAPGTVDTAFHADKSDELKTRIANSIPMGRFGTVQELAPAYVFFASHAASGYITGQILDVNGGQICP
Description: photometric SpsADH enzyme assay, oxidation of substrates (NAD+/NADH at 340 nm). Format: biochemical, Sphingomonas species A1. The method, then:
The activity of SpsADH was determined photometrically by monitoring the increase/decrease of NAD^+/NADH at 340 nm using the Infinite 200 pro photometer (Tecan Group Ltd.). Reactions were performed at 25 C in triplicate using 96-well microtiter plates. For determination of the substrate scope, the reaction mixtures contained 50 mM ammonium bicarbonate, pH 7.9, 0.3 mM NADH (or 1 mM NAD^+), a defined alcohol, aldehyde, aldonic acid or uronic acid as substrate and the purified enzyme. One unit of enzyme activity was defined as the amount of protein that reduces (oxidizes) 1 µmol of NAD(H)/min at […]. Calculation of Michaelis-Menten kinetics for determination of Km and vmax was done with Sigma-Plot 11.0 (Systat Software).

Substrate in data set [1]: O=C(O)[C@@H](O)[C@@H](O)[C@H](O)[C@H](O)CO
As to the kind of experiment: purified protein, by the assay type. Conditions: other: oxidation of C5/C6 aldonates by SpsADH (Table 3); pH 7.9.

Substrate in data set [2]: O=C(O)[C@H](O)[C@H](O)[C@H](O)[C@H](O)CO
Description: purified protein, by the assay type. Conditions: other: oxidation of C5/C6 aldonates by SpsADH (Table 3); pH 7.9.

Substrate in data set [3]: O=C(O)[C@@H](O)[C@H](O)[C@H](O)[C@H](O)CO
As to the kind of experiment: purified protein, by the assay type. Conditions: other: oxidation of C5/C6 aldonates by SpsADH (Table 3); pH 7.9.

Substrate in data set [4]: O=C(O)[C@H](O)[C@@H](O)[C@H](O)[C@H](O)CO
Description: purified protein, by the assay type. The conditions noted are these: other: oxidation of C5/C6 aldonates by SpsADH (Table 3); pH 7.9.

Substrate in data set [5]: O=C(O)C(=O)C[C@H](O)[C@H](O)CO
Description: photometric SpsADH enzyme assay, oxidation of substrates (NAD+/NADH at 340 nm). The format is biochemical, Sphingomonas species A1. Conditions: other: oxidation of KDG by SpsADH, 50 mM ammonium bicarbonate pH 7.9, NAD+, 25 C.

Substrate in data set [6]: O=C(O)[C@H](O)[C@H](O)[C@H](O)CO
The description is as above. Conditions: other: oxidation of C5/C6 aldonates by SpsADH (Table 3); pH 7.9. Format: biochemical, Sphingomonas species A1.

Substrate in data set [7]: O=C(O)[C@@H](O)[C@H](O)[C@H](O)CO
The data set is described as above. Format: biochemical, Sphingomonas species A1. The conditions noted are these: other: oxidation of C5/C6 aldonates by SpsADH (Table 3); pH 7.9.

`O=C(O)C(=O)C[C@H](O)[C@H](O)CO` [KDG, 2-keto-3-deoxy-D-gluconate]: on SpsADH (native substrate KDG, result in words), the oxidative activity entry is on record as “very low oxidative activity”.
At SpsADH (oxidation by SpsADH, polyol), `OC[C@@H](O)[C@@H](O)[C@H](O)[C@@H](O)CO` [D-sorbitol] yielded an activity of 1.7 mU/mg. The vmax on SpsADH (oxidation of D-sorbitol to L-gulose by SpsADH) turned out to be 6.2 ± 0.1 mU/mg.

B1: SpsADH (Sphingomonas sp. A1) (protein)
chain: T1 sequence (A0A075B5H4 1-258)
By Km is commonly meant the substrate concentration at which the rate is half of its maximum. As a reminder, the kcat is the number of substrate molecules converted per active site and unit of time at saturation. The kcat/Km is the turnover number divided by the Michaelis constant. Take B1: the Km in data set [1] is recorded as 18.3 ± 1.3 mM; in data set [2], 17.1 ± 2.4 mM; in data set [3] it was 27.0 ± 4.2 mM; in data set [4], 15.7 ± 1.6 mM; in data set [5], 20.9 ± 3.16 mM; in data set [6] it was 16.9 ± 1.4 mM. Further, the Km in data set [7] came out at 25.6 ± 2.6 mM. Besides, the Vmax in data set [1] came out at 0.52 ± 0.01 U/mg; in data set [2] it was 0.28 ± 0.01 U/mg; in data set [3], 0.32 ± 0.01 U/mg; in data set [4], 1.28 ± 0.04 U/mg; in data set [5], 1.81 ± 0.009 U/mg; in data set [6], 0.01 ± 0.00 U/mg. Further, the Vmax in data set [7] came out at 0.01 ± 0.00 U/mg. Further, the kcat in data set [1] was 0.26 ± 0.00 s⁻¹; in data set [2], 0.14 ± 0.01 s⁻¹; in data set [3], 0.16 ± 0.01 s⁻¹; in data set [4], 0.63 ± 0.02 s⁻¹; in data set [5] it was 0.89 ± 0.047 s⁻¹; in data set [6], 0.01 ± 0.00 s⁻¹. In addition, the kcat in data set [7] is 0.01 ± 0.00 s⁻¹. Besides, the kcat/Km was determined as 13.9 ± 1.2 M⁻¹ s⁻¹ in data set [1]; 8.1 ± 1.4 M⁻¹ s⁻¹ in data set [2]; 5.8 ± 1.2 M⁻¹ s⁻¹ in data set [3]; 40.0 ± 5.4 M⁻¹ s⁻¹ in data set [4]; 42.5 ± 8.68 M⁻¹ s⁻¹ in data set [5]; 0.3 ± 0.1 M⁻¹ s⁻¹ in data set [6]. Besides, the kcat/Km in data set [7] is 0.2 ± 0.0 M⁻¹ s⁻¹.
